Results taken from the supplement of paper PMC10567573.

B1: POMT2 (parent)
chain: VLRSRIRFIHLVTGCVLGSSGKVL
B2: APBB1IP (parent)
chain: ADPVLDLPLPPPPPEPLSQVSMWD
B3: SPATS1 (parent)
chain: GRKKYDIDPRNGIPKLTPGDNPYM

Variants of: B1
Experiment: protein stability index of a GFP-peptide fusion (GPS, HEK-293T) (PSI 1-6); higher = more stable
Conditions: c terminus: a fixed tail appended
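Also: lentivirally expressed fusions sorted by FACS into six bins by GFP to DsRed ratio, PSI derived from sequencing read proportions per bin multiplied by bin number.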

First: VLRSRIRFIHLVTGCVLGSEGKVL [S20E]
Second: VLRSRIRFIHLVTGCVLGSRGKVL [S20R]
The protein stability index of the first is lower: 1.99 for the first, 2.82 for the second.

First: VLRSRIRFIHLVTGCVLGSLGKVL [S20L]
Second: VLRSRIRFIHLVTGCVLGSQGKVL [S20Q]
The protein stability index of the first is lower: 2.12 for the first, 3.58 for the second.

First: VLRSRIRFIHLVTGCVLGSPGKVL [S20P]
Second: VLRSRIRFIHLVTGCVLGSMGKVL [S20M]
The protein stability index of the first is higher: 1.69 for the first, 1.28 for the second.

First: VLRSRIRFIHLVTGCVLGSTGKVL [S20T]
Second: VLRSRIRFIHLVTGCVLGSCGKVL [S20C]
The protein stability index of the first is higher: 3.42 for the first, 3.22 for the second.

Compared with VLRSRIRFIHLVTGCVLGSHGKVL [S20H], VLRSRIRFIHLVTGCVLGSVGKVL [S20V] is lower in protein stability index: 2.64 for the first, 1.85 for the second.

First: VLRSRIRFIHLVTGCVLGSGGKVL [S20G]
Second: VLRSRIRFIHLVTGCVLGSFGKVL [S20F]
The protein stability index of the first is higher: 2.08 for the first, 1.43 for the second.

Going from VLRSRIRFIHLVTGCVLGSDGKVL [S20D] to VLRSRIRFIHLVTGCVLGSIGKVL [S20I], the protein stability index falls from 2.12 to 1.78.

Going from VLRSRIRFIHLVTGCVLGSWGKVL [S20W] to VLRSRIRFIHLVTGCVLGNSGKVL [S19N], the protein stability index rises from 2.12 to 2.73.

First: VLRSRIRFIHLVTGCVLGKSGKVL [S19K]
Second: VLRSRIRFIHLVTGCVLGVSGKVL [S19V]
The protein stability index of the first is lower: 1.67 for the first, 2.73 for the second.

Compared with VLRSRIRFIHLVTGCVLGRSGKVL [S19R], VLRSRIRFIHLVTGCVLGWSGKVL [S19W] is higher in protein stability index: 2.41 for the first, 2.66 for the second.

Compared with VLRSRIRFIHLVTGCVLGGSGKVL [S19G], VLRSRIRFIHLVTGCVLGLSGKVL [S19L] is lower in protein stability index: 1.99 for the first, 1.78 for the second.

Compared with VLRSRIRFIHLVTGCVLGISGKVL [S19I], VLRSRIRFIHLVTGCVLGMSGKVL [S19M] is higher in protein stability index: 2.59 for the first, 3.45 for the second.

Compared with VLRSRIRFIHLVTGCVLGASGKVL [S19A], VLRSRIRFIHLVTGCVLGDSGKVL [S19D] is higher in protein stability index: 1.93 for the first, 3.66 for the second.

First: VLRSRIRFIHLVTGCVLGFSGKVL [S19F]
Second: VLRSRIRFIHLVTGCVLGPSGKVL [S19P]
The protein stability index of the first is lower: 2.63 for the first, 3.18 for the second.

First: VLRSRIRFIHLVTGCVLGCSGKVL [S19C]
Second: VLRSRIRFIHLVTGCVLGTSGKVL [S19T]
The protein stability index of the first is lower: 2.51 for the first, 3.6 for the second.

Variants of: B2
Experiment: as above
Conditions: c terminus: a fixed tail appended

Going from ADPVLDLPLPPPVPEPLSQVSMWD [P13V] to ADPVLDLPLPPPRPEPLSQVSMWD [P13R], the protein stability index rises from 3.84 to 4.37.

Compared with ADPVLDLPLPPPWPEPLSQVSMWD [P13W], ADPVLDLPLPPPEPEPLSQVSMWD [P13E] is higher in protein stability index: 3.8 for the first, 4.96 for the second.

Going from ADPVLDLPLPPPKPEPLSQVSMWD [P13K] to ADPVLDLPLPVPPPEPLSQVSMWD [P11V], the protein stability index falls from 4.6 to 4.43.

ADPVLDLPLPEPPPEPLSQVSMWD [P11E] and ADPVLDLPLPKPPPEPLSQVSMWD [P11K] are the same in protein stability index: 4.69 for the first, 4.69 for the second.

Variants of: B3
Experiment: as above
Conditions: c terminus: a fixed tail appended

Going from GFKKYDIDPRNGIPKLTPGDNPYM [R2F] to GMKKYDIDPRNGIPKLTPGDNPYM [R2M], the protein stability index falls from 3.4 to 3.37.

Compared with GSKKYDIDPRNGIPKLTPGDNPYM [R2S], GLKKYDIDPRNGIPKLTPGDNPYM [R2L] is lower in protein stability index: 3.66 for the first, 3.12 for the second.

First: GEKKYDIDPRNGIPKLTPGDNPYM [R2E]
Second: GGKKYDIDPRNGIPKLTPGDNPYM [R2G]
The protein stability index of the first is higher: 4.15 for the first, 3.39 for the second.

Compared with GKKKYDIDPRNGIPKLTPGDNPYM [R2K], GWKKYDIDPRNGIPKLTPGDNPYM [R2W] is lower in protein stability index: 3.61 for the first, 2.73 for the second.

Going from GVKKYDIDPRNGIPKLTPGDNPYM [R2V] to GYKKYDIDPRNGIPKLTPGDNPYM [R2Y], the protein stability index falls from 3.73 to 3.15.

Going from GAKKYDIDPRNGIPKLTPGDNPYM [R2A] to GCKKYDIDPRNGIPKLTPGDNPYM [R2C], the protein stability index falls from 3.51 to 3.3.

Compared with GPKKYDIDPRNGIPKLTPGDNPYM [R2P], GNKKYDIDPRNGIPKLTPGDNPYM [R2N] is lower in protein stability index: 3.73 for the first, 3.44 for the second.

First: GTKKYDIDPRNGIPKLTPGDNPYM [R2T]
Second: GQKKYDIDPRNGIPKLTPGDNPYM [R2Q]
The protein stability index of the first is lower: 3.15 for the first, 3.59 for the second.

Compared with GHKKYDIDPRNGIPKLTPGDNPYM [R2H], GIKKYDIDPRNGIPKLTPGDNPYM [R2I] is lower in protein stability index: 3.85 for the first, 3.25 for the second.

First: GDKKYDIDPRNGIPKLTPGDNPYM [R2D]
Second: GRIKYDIDPRNGIPKLTPGDNPYM [K3I]
The protein stability index of the first is higher: 4.13 for the first, 3.39 for the second.

First: GRTKYDIDPRNGIPKLTPGDNPYM [K3T]
Second: GRFKYDIDPRNGIPKLTPGDNPYM [K3F]
The protein stability index of the first is higher: 3.73 for the first, 2.83 for the second.

Going from GRRKYDIDPRNGIPKLTPGDNPYM [K3R] to GRNKYDIDPRNGIPKLTPGDNPYM [K3N], the protein stability index rises from 3.27 to 3.32.

First: GRLKYDIDPRNGIPKLTPGDNPYM [K3L]
Second: GRAKYDIDPRNGIPKLTPGDNPYM [K3A]
The protein stability index of the first is lower: 3.19 for the first, 3.2 for the second.

First: GRCKYDIDPRNGIPKLTPGDNPYM [K3C]
Second: GRDKYDIDPRNGIPKLTPGDNPYM [K3D]
The protein stability index of the first is lower: 2.29 for the first, 4.24 for the second.

Compared with GRVKYDIDPRNGIPKLTPGDNPYM [K3V], GRWKYDIDPRNGIPKLTPGDNPYM [K3W] is lower in protein stability index: 3.67 for the first, 2.91 for the second.

Compared with GRSKYDIDPRNGIPKLTPGDNPYM [K3S], GRPKYDIDPRNGIPKLTPGDNPYM [K3P] is higher in protein stability index: 3.25 for the first, 3.29 for the second.

Compared with GRHKYDIDPRNGIPKLTPGDNPYM [K3H], GRGKYDIDPRNGIPKLTPGDNPYM [K3G] is lower in protein stability index: 3.67 for the first, 3.53 for the second.

First: GREKYDIDPRNGIPKLTPGDNPYM [K3E]
Second: GRQKYDIDPRNGIPKLTPGDNPYM [K3Q]
The protein stability index of the first is lower: 3.79 for the first, 3.8 for the second.

First: GRMKYDIDPRNGIPKLTPGDNPYM [K3M]
Second: WRKKYDIDPRNGIPKLTPGDNPYM [G1W]
The protein stability index of the first is higher: 3.2 for the first, 2.78 for the second.

First: ERKKYDIDPRNGIPKLTPGDNPYM [G1E]
Second: QRKKYDIDPRNGIPKLTPGDNPYM [G1Q]
The protein stability index of the first is higher: 3.96 for the first, 3.52 for the second.

Going from IRKKYDIDPRNGIPKLTPGDNPYM [G1I] to KRKKYDIDPRNGIPKLTPGDNPYM [G1K], the protein stability index rises from 2.66 to 3.25.

Going from DRKKYDIDPRNGIPKLTPGDNPYM [G1D] to MRKKYDIDPRNGIPKLTPGDNPYM [G1M], the protein stability index falls from 3.85 to 3.12.

Compared with TRKKYDIDPRNGIPKLTPGDNPYM [G1T], RRKKYDIDPRNGIPKLTPGDNPYM [G1R] is higher in protein stability index: 3.4 for the first, 3.93 for the second.

Compared with FRKKYDIDPRNGIPKLTPGDNPYM [G1F], PRKKYDIDPRNGIPKLTPGDNPYM [G1P] is higher in protein stability index: 2.88 for the first, 3.51 for the second.

Going from SRKKYDIDPRNGIPKLTPGDNPYM [G1S] to VRKKYDIDPRNGIPKLTPGDNPYM [G1V], the protein stability index rises from 3.65 to 3.68.

Going from NRKKYDIDPRNGIPKLTPGDNPYM [G1N] to LRKKYDIDPRNGIPKLTPGDNPYM [G1L], the protein stability index falls from 3.54 to 2.96.

Compared with CRKKYDIDPRNGIPKLTPGDNPYM [G1C], YRKKYDIDPRNGIPKLTPGDNPYM [G1Y] is higher in protein stability index: 2.83 for the first, 3.31 for the second.

Compared with ARKKYDIDPRNGIPKLTPGDNPYM [G1A], HRKKYDIDPRNGIPKLTPGDNPYM [G1H] is lower in protein stability index: 3.48 for the first, 3.25 for the second.
